# Test: yeast display, Sf9 membrane polyspecificity reagent, FACS + sequencing; frameworks hold sequencing errors
# How it was run: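 Nanobodies from a synthetic yeast display library (Saccharomyces cerevisiae BJ5465), induced 36–48 hours with galactose, were stained 1 hour at 4 °C with 10% biotinylated, detergent-solubilized Sf9 membrane reagent, enriched on streptavidin microbeads, then FACS-sorted. Anti-HA (expression) and streptavidin (reagent binding) fluorescence set low and high (top ~1%) gates. Polyreactivity labels come from the gate of origin. Genes were colony-PCR amplified, MiSeq 2 × 250 sequenced and filtered by CDR length.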
row,Sequence,polyreactivity (PSR sort gate)
1,QVQLVESGGGLVQAGGSLRLSCAASGRIFGRNARGWYRQAPGKEREFVAAISGNGGSTYYADSVKGRFTISRDNAKNTVYLQMNSLKPEDTAVYYCATKYFSRMDYWGQGTQVTVSS,high polyreactivity
2,QVQLVESGGGLVQAGGSLRLSCAASGRIFGRYAMGWSRQAPGKERELVAAIRWSVGSTYYADSVKGRFTISRDNAKNTVYLQMNSLKPEDTAVYYCAADIRQSIMDYWGQGTQVTVSS,high polyreactivity
3,QVQLVESGGGLVQAGGSLRLSCAASGRIFGRYAMGWYRPAPGKERELVAAITYRTGRTYYADSVKGRFTISRDNAKNTVYLQMNSLKPEDTAVYYCDAESTSDPIDFEYWGQGTQVTVSS,low polyreactivity
4,QVQLVESGGGLVQAGGSLRLSCAASGRIFGRYAMGWYRQAPGKDRELVAAISSRGSRTYYADSVKGRFTISRDNAKNTVYLQMNSLKPEVTAVYYCAASWLSYPSDYDYWGQGTQVTVSS,high polyreactivity
5,QVQLVESGGGLVQAGGSLRLSCAASGRIFGRYAMGWYRQAPGKEREFVAAISKRGGGTYYADSVKGRFTISRDNAKNTVYLQMNSLKPEDTAVYYCAVDNSPGFDDYDYWGQGTQVTVSS,high polyreactivity
6,QVQLVESGGGLVQAGGSLRLSCAASGRIFGRYAMGWYRQAPGKERELVAVISSGGSTYYADSVKGRFTISRDNAKNTVYLQMNSLKPDDTAVYYCAAVIRGGYDYWGQGTQVTVSS,low polyreactivity
7,QVQLVESGGGLVQAGGSLRLSCAASGRIFGRYAMGWYRQAPGTERELVAAITSGGRTSYADSVKGRFTISRDNAKNTVDLQMNSLKPEDTAVYYCNVVSRNSIRFDYWGQGTQVTVSS,high polyreactivity
8,QVQLVESGGGLVQAGGSLRLSCAASGRIFGSYAMGWYRPAPGKERELVAGIRSVGSTNYADSVKGRFTISRDNAKNTVYLQMNSLKPEDTAVYYCAARLWHLSYAGQGGDYWGQGTQVTVSS,low polyreactivity
9,QVQLVESGGGLVQAGGSLRLSCAASGRIFGSYAMGWYRQAPGKERELVAAISWNGGSRYYADSVKGRFTISRDNAKNTVYLQMNSLKPEDTAVYYCAVVYRAYRSTAYLYGYWGQGTQVTVSS,high polyreactivity
10,QVQLVESGGGLVQAGGSLRLSCAASGRIFGSYAMGWYRQAPGKERELVAAITRGGSTNYADSVKGRFTISRDNAKNTVYFQMNSLKPEDTAVYYCARWVGLHYPYYYWGQGTQVTVSS,high polyreactivity
11,QVQLVESGGGLVQAGGSLRLSCAASGRIFGSYAMGWYRQAPGKERELVAAITTVGITYYADSVKGRFTISRDNAKNTVYLQMNSLKPEDTADYYCAAEYFDYPYWYDYWGQGTQVTVSS,high polyreactivity
12,QVQLVESGGGLVQAGGSLRLSCAASGRIFGSYAMGWYRQAPGKERELVAGIRSVGSTNYADSVKGRFTISRDNAKNTVYFQINSLKPEDTAVYYCAARLWHLSYAGQGGDYWGHGTQVTVSS,low polyreactivity
13,QVQLVESGGGLVQAGGSLRLSCAASGRIFGSYAMVWYRQVPGKERELVAASNWRGGSTFYADSVKGRFTISRDIAKNTVFLQMNSLKPDDNAVYYCSRRVYPQSCDNWGQGTQLTVSS,low polyreactivity
14,QVQLVESGGGLVQAGGSLRLSCAASGRIFGTNDMGWYRQAPGKETELVAAIRATSGSTYYADSVKGRFTISRDNAKNTVYLQMNSLKPEDTAVYYCAAEIWRYNSYIKYWHRLDYWGQGTQVTVSS,high polyreactivity
15,QVQLVESGGGLVQAGGSLRLSCAASGRIFGVNAMGWYRQAPGKERELVAAIFSGGSTYYADSVKGRFTISRDNAKNTVYLQMNSLKPEDTAGYYCAARFARYDWSMYYWGQGTQVTVSS,low polyreactivity
16,QVQLVESGGGLVQAGGSLRLSCAASGRIFGVNAMGWYRQAPGKERELVAAIFSGGSTYYADSVKGRFTISRDTAKNTVYLQMNSLKPEDTAVYYCAARFARYDWSMYYWGQGTQVTVSS,low polyreactivity
17,QVQLVESGGGLVQAGGSLRLSCAASGRIFGVNAMGWYRQAPGKERELVAAINYSGGRTSYADSVKGRFTISRDHAKNTVYLQMNSLKPEDTAVYYCAKYGLRGGYLYYYWGQGTQVTVSS,high polyreactivity
18,QVQLVESGGGLVQAGGSLRLSCAASGRIFGVNAMGWYRQAPGKERELVAAITSSGGSTYYADSVKGRFTISRDHAKNTVYLQMNSLKPEDTAVYYCAAKYWYGKPYGSYGYWGQGTQVTVSS,high polyreactivity
19,QVQLVESGGGLVQAGGSLRLSCAASGRIFGVNAMGWYRQAPGKERELVAAITWSGGRTYYADSVKGRFTISRDNAKNTVFLLMNSMKQEDTAVYYCNTGLSGRRYGFGLSFCMDYWGQGTQVTVSS,low polyreactivity
20,QVQLVESGGGLVQAGGSLRLSCAASGRIFGVNVMGWYRQAPGKERELVAGINSSGGSTYYADSVKGRFTISRDNAKNTVYLQMNSLKPEDTAVYYCDVRSIWRYGYWGQGTQVTVSS,high polyreactivity
21,QVQLVESGGGLVQAGGSLRLSCAASGRIFGVYAMGWYRQAPGKERELVAAITRRGGTTYYADSVKGRFTISRDNAKNTVYLQMNSLKPEDTAVYYCAAVFVTQSFIYDYYYWGQGTQVTVSS,high polyreactivity
22,QVQLVESGGGLVQAGGSLRLSCAASGRIFGVYAMGWYRQAPGKERELVAAITSSGGRTYYADSVKGRFTISRDNAKNTVYLQMNSLKPEDTAVYYCAALGLSRRGKFNYWGQGTQVTVSS,high polyreactivity

row,Sequence,polyreactivity (PSR sort gate)
1,QVQLVESGGGLVQAGGSLRLSCAASGRIFGVYAMGWYRQAPGKERELVAAIYSGSSTYYADSVKGRFTISRDNAKNTVYLQMNSLKPEDTAVYYCAAVSRDDNYHDYYYWGQGTQVTVSS,low polyreactivity
2,QVQLVESGGGLVQAGGSLRLSCAASGRIFGVYAMGWYRQAPGKERELVASISDGTITNYADSVKGRFTISRDNAKNTVYLQMNSLKPEDTAVYYCAATWSFVYGDYFEYDYWGQGTQVTVSS,low polyreactivity
3,QVQLVESGGGLVQAGGSLRLSCAASGRIFGVYAMGWYRQAPGKERELVASITWRGGSTYYADSVKGRFTISRDNAKNTVYLQMNSLKPEDTAVYYCAAAYWYAYEYWGQGTQVTVSS,high polyreactivity
4,QVQLVESGGGLVQAGGSLRLSCAASGRIFGVYAMGWYRQAPGKERELVAVINGRGSRTYYADSVKGRFTISRDNAKNTVYLQMNSLKPEDTAVYYCAAGYPDSEYDYWGQGTQVTVSS,high polyreactivity
5,QVQLVESGGGLVQAGGSLRLSCAASGRIFGWNAMGWYRQPPGKERELVAAISADGNTYYADSVKGRFTISRDNAKNTVYLQMNSLKPEDTAVYYCNAYVYSGYSIRDYWGQGTQVTVSS,high polyreactivity
6,QVQLVESGGGLVQAGGSLRLSCAASGRIFGWYAMGWYRQAPGKERELVAAISSADSTNYADSVKGRFTIARDNAKNTVYLQMNSLKPEDTAVYYCNAEGLPGNVVYGYYYWGQGTQLTVSS,low polyreactivity
7,QVQLVESGGGLVQAGGSLRLSCAASGRIFGWYAMGWYRQAPGKERELVATIRKSGGRTYYADSVKGRFTLSRDNAKNTVYFQMNSLKQEDTAVYYCAAENTAAGQGLWGEDYWGQGTQVTVSS,high polyreactivity
8,QVQLVESGGGLVQAGGSLRLSCAASGRIFGWYSMGWYRQAPGKERELVAAISSNGGSTYYADSVKGRFTISRDNAKNTVYLQMNSLKPEDTAVYFCAAVRVFQYKYDRFNYWGQGTQVTVSS,high polyreactivity
9,QVQLVESGGGLVQAGGSLRLSCAASGRIFGYNAMGWYRPAPGNERELVAAISWSGGNTYYADSVKGRFTISRDHAKNTVYLQMNSLKPEDTAVYYCNASPYRYRPSEYDYWGQGTQVTVSS,high polyreactivity
10,QVQLVESGGGLVQAGGSLRLSCAASGRIFGYNAMGWYRQAPGKERELVAAINSDGSKNYADSVKGRFTISRDNAKNTVYLQMNSLKPEDTAVYYCAADGHVGPLGVSFDSWGQGSQVTVSS,low polyreactivity
11,QVQLVESGGGLVQAGGSLRLSCAASGRIFGYNAMGWYRQAPGKERELVAAITTSGGSTYYADSVKGRFTISRDNAKNTVYLQMNSLKPEVTAVYYCAGDSLQVFYPYASDDYWGHGTQVTVSS,low polyreactivity
12,QVQLVESGGGLVQAGGSLRLSCAASGRIFGYNAMGWYRQAPGKERELVASIRSGGSTNYADSVKGRFTISRDNAKNTVYLQMNSLKPEDTAVYYCAKSYRWHLNGGLGWRLGNYWGQGTQVTVSS,high polyreactivity
13,QVQLVESGGGLVQAGGSLRLSCAASGRIFGYNAMGWYRQAPGKERELVASITRGGSTNYADSVKGRFTISRDNAKNTVYLQMNSLKPEDTAVYYCATRWPHYGGYYYWGQGTQVTVSS,high polyreactivity
14,QVQLVESGGGLVQAGGSLRLSCAASGRIFGYNAMGWYRQATGKERELVAGITRNDGSTYYADSVKGRFTISRDNAKNTVYLLMNSLKPEDTAVYYCYRYLHLAGSWGQGTQVTVSS,low polyreactivity
15,QVQLVESGGGLVQAGGSLRLSCAASGRIFGYNPMGWYRQAPGKERELVAAITTSGGSTYYADSVKGRFTISRDNAKNTVYLQMNSQKPEDTAVYYCARDSLQVFYPYASDDYWGQGTQVTVSS,low polyreactivity
16,QVQLVESGGGLVQAGGSLRLSCAASGRIFGYYAMGWFRQAPGKERELVATITFGGGSTYYADSVKGRFTISRDNAKNTVYLQMNSPKPEDTAVYYCAADSGYLGIYGDEYSWGQGTQVTVSS,low polyreactivity
17,QVQLVESGGGLVQAGGSLRLSCAASGRIFGYYAMGWSRQAPGKEWELVAAISSGGRTYYADSVKGRFTISRDNAKNTVYLQMNSLKPEDTAVYYCAARSRVPPAGPRYDYWGQGTQVTVSS,high polyreactivity
18,QVQLVESGGGLVQAGGSLRLSCAASGRIFGYYAMGWYRQAPGKERELVAAISSGGNTNYADSVKGRFTISRDNAKNTVYLQMYSLKPEDTAVFYCAAYHFSFGWIRVDYWGQGTQVTVSS,high polyreactivity
19,QVQLVESGGGLVQAGGSLRLSCAASGRIFGYYAMGWYRQAPGKERELVAAISWSGGRTYYADSVKGRFTISRDNAKNTVYLQMNSLKPEDTAVYYCNKVYRVPITEEYDYWGQGTQVTVSS,high polyreactivity
20,QVQLVESGGGLVQAGGSLRLSCAASGRIFGYYAMGWYRQAPGKERELVAAITRNGGSTYYADSVKGRFTISRDNAKNTVYLQMNSLKPEDTAVYYCAATKGGGRGYWGQGTQVTVSS,high polyreactivity
21,QVQLVESGGGLVQAGGSLRLSCAASGRIFGYYAMGWYRQAPGKERELVASIRRGTRTNYADSVKGRFTISRDNAKNTVYLQMNSLKPEDTAVYYCAATRFQFTTTPWYDYWGQGTQVTVSS,high polyreactivity

# — the nanobody polyreactivity screen of Harvey et al. (2022)
